The results in this text go back to FireProtDB.

The chains are these.
B1: Glutamate dehydrogenase, Q56304 (parent)
chain: MVEQDPFEIAVKQLERAAQYMDISEEALEFLKRPQRIVEVSIPVEMDDGSVKVFTGFRVQYNWARGPTKGGIRWHPEETLSTVKALAAWMTWKTAVMDLPYGGGKGGVICNPKEMSDREKERLARGYVRAIYDVISPYTDIPAPDVYTNPQIMAWMMDEYETISRRKDPSFGVITGKPPSVGGIVARMDATARGASYTVREAAKALGMDLKGKTIAIQGYGNAGYYMAKIMSEEYGMKVVAVSDSKGGIYNPDGLNADEVLAWKKKTGSVKDFPGATNITNEELLELEVDVLAPSAIEEVITKKNADNIKAKIVAELANGPTTPEADEILYEKGILIIPDFLCNAGGVTVSYFEWVQNITGDYWTVEETRAKLDKKMTKAFWDVYNTHKEKNINMRDAAYVVAVSRVYQAMKDRGWIKK
B2: Beta-crystallin B2, P02522 (parent)
chain: MASDHQTQAGKPQPLNPKIIIFEQENFQGHSHELNGPCPNLKETGVEKAGSVLVQAGPWVGYEQANCKGEQFVFEKGEYPRWDSWTSSRRTDSLSSLRPIKVDSQEHKITLYENPNFTGKKMEVIDDDVPSFHAHGYQEKVSSVRVQSGTWVGYQYPGYRGLQYLLEKGDYKDSGDFGAPQPQVQSVRRIRDMQWHQRGAFHPSS
B3: Gamma-crystallin D, P07320 (parent)
chain: MGKITLYEDRGFQGRHYECSSDHPNLQPYLSRCNSARVDSGCWMLYEQPNYSGLQYFLRRGDYADHQQWMGLSDSVRSCRLIPHSGSHRIRLYEREDYRGQMIEFTEDCSCLQDRFRFNEIHSLNVLEGSWVLYELSNYRGRQYLLMPGDYRRYQDWGATNARVGSLRRVIDFS
B4: AP-4 complex subunit mu-1, O00189 (parent)
chain: MISQFFILSSKGDPLIYKDFRGDSGGRDVAELFYRKLTGLPGDESPVVMHHHGRHFIHIRHSGLYLVVTTSENVSPFSLLELLSRLATLLGDYCGSLGEGTISRNVALVYELLDEVLDYGYVQTTSTEMLRNFIQTEAVVSKPFSLFDLSSVGLFGAETQQSKVAPSSAASRPVLSSRSDQSQKNEVFLDVVERLSVLIASNGSLLKVDVQGEIRLKSFLPSGSEMRIGLTEEFCVGKSELRGYGPGIRVDEVSFHSSVNLDEFESHRILRLQPPQGELTVMRYQLSDDLPSPLPFRLFPSVQWDRGSGRLQVYLKLRCDLLSKSQALNVRLHLPLPRGVVSLSQELSSPEQKAELAEGALRWDLPRVQGGSQLSGLFQMDVPGPPGPPSHGLSTSASPLGLGPASLSFELPRHTCSGLQVRFLRLAFRPCGNANPHKWVRHLSHSDAYVIRI
B5: Alpha-amylase, P29957 (parent)
chain: MKLNKIITTAGLSLGLLLPSIATATPTTFVHLFEWNWQDVAQECEQYLGPKGYAAVQVSPPNEHITGSQWWTRYQPVSYELQSRGGNRAQFIDMVNRCSAAGVDIYVDTLINHMAAGSGTGTAGNSFGNKSFPIYSPQDFHESCTINNSDYGNDRYRVQNCELVGLADLDTASNYVQNTIAAYINDLQAIGVKGFRFDASKHVAASDIQSLMAKVNGSPVVFQEVIDQGGEAVGASEYLSTGLVTEFKYSTELGNTFRNGSLAWLSNFGEGWGFMPSSSAVVFVDNHDNQRGHGGAGNVITFEDGRLYDLANVFMLAYPYGYPKVMSSYDFHGDTDAGGPNVPVHNNGNLECFASNWKCEHRWSYIAGGVDFRNNTADNWAVTNWWDNTNNQISFGRGSSGHMAINKEDSTLTATVQTDMASGQYCNVLKGELSADAKSCSGEVITVNSDGTINLNIGAWDAMAIHKNAKLNTSSASSTESDWQRTVIFINAQTQSGQDMFIRGGIDHAYANANLGRNCQTSNFECAMPIRHNNLKNVTTSPWKANDNYLDWYGIENGQSSEAEGSATDWTTNVWPAGWGAEKTVNTDGFGVTPLNIWGEHYWMLDVDMDCSKAVNGWFELKAFIKNGQGWETAIAQDNAPYTSTNHMAQCGKINKFEFNNSGVVIRSF

In one data set the parent is B1. The following applies: Thermococcus litoralis (strain ATCC 51850 / DSM 5473 / JCM 8560 / NS-C); pH 7; Thermal; DSC; diglycine 50 mM; KCl 700 mM; reversible: no; structure 1BVU; whole UniProt chain shown.
Take MVEQDPFEIAVKQLERAAQYMDISEEALEFLKRPQRIVEVSIPVEMDDGSVKVFTGFRVQYNWARGPTKGGIRWHPEETLSTVKALAAWMTWKTAVMDLPYGGGKGGVICNPKEMSDREKERLARGYVRAIYDVISPYTDIPAPDVYTNPQIMAWMMDEYETISRRKTPSFGVITGKPPSVGGIVARMDATARGASYTVREAAKALGMDLKGKTIAIQGYGNAGYYMAKIMSEEYGMKVVAVSDSKGGIYNPDGLNADEVLAWKKKTGSVKDFPGATNITNEELLELEVDVLAPSAIEEVITKKNADNIKAKIVAELANGPTTPEADEILYEKGILIIPDFLCNAGGVTVSYFEWVQNITGDYWTVEETRAKLDKKMTKAFWDVYNTHKEKNINMRDAAYVVAVSRVYQAMKDRGWIKK [D168T]: the Tm came to 108 °C and the “change of melting temperature, mutant - wild type (higher = more stable)” value (“change of melting temperature, mutant” for short) was -0.5 °C.
In the case of MVEQDPFEIAVKQLERAAQYMDISEEALEFLKRPQRIVEVSIPVEMDDGSVKVFTGFRVQYNWARGPTKGGIRWHPEETLSTVKALAAWMTWKTAVMDLPYGGGKGGVICNPKEMSDREKERLARGYVRAIYDVISPYEDIPAPDVYTNPQIMAWMMDEYETISRRKTPSFGVITGKPPSVGGIVARMDATARGASYTVREAAKALGMDLKGKTIAIQGYGNAGYYMAKIMSEEYGMKVVAVSDSKGGIYNPDGLNADEVLAWKKKTGSVKDFPGATNITNEELLELEVDVLAPSAIEEVITKKNADNIKAKIVAELANGPTTPEADEILYEKGILIIPDFLCNAGGVTVSYFEWVQNITGDYWTVEETRAKLDKKMTKAFWDVYNTHKEKNINMRDAAYVVAVSRVYQAMKDRGWIKK [T139E D168T], the Tm amounted to 112 °C and the “change of melting temperature, mutant” value was 2.5 °C.
The matching figures for MVEQDPFEIAVKQLERAAQYMDISEEALEFLKRPQRIVEVSIPVEMDDGSVKVFTGFRVQYNWARGPTKGGIRWHPEETLSTVKALAAWMTWKTAVMDLPYGGGKGGVICNPKEMSDREKERLARGYVRAIYDVISPYEDIPAPDVYTNPQIMAWMMDEYETISRRKDPSFGVITGKPPSVGGIVARMDATARGASYTVREAAKALGMDLKGKTIAIQGYGNAGYYMAKIMSEEYGMKVVAVSDSKGGIYNPDGLNADEVLAWKKKTGSVKDFPGATNITNEELLELEVDVLAPSAIEEVITKKNADNIKAKIVAELANGPTTPEADEILYEKGILIIPDFLCNAGGVTVSYFEWVQNITGDYWTVEETRAKLDKKMTKAFWDVYNTHKEKNINMRDAAYVVAVSRVYQAMKDRGWIKK [T139E]: 104 °C and -5.5 °C.

In a further data set the parent is B2. The following applies: Bos taurus; pH 7.2; Thermal; fluorescence; sodium phospahte 20 mM; NaCl; transition: 2; structure 2BB2; whole UniProt chain shown.
On to MASDHQTQAGKPQPLNPKIIIFEQENFQGHSHELNGPCPNLKETGVEKAGSVLVQAGPCVGYEQANCKGEQFVFEKGEYPRWDSWTSSRRTDSLSSLRPIKVDSQEHKITLYENPNFTGKKMEVIDDDVPSFHAHGYQEKVSSVRVQSGTWVGYQYPGYRGLQYLLEKGDYKDSGDFGAPQPQVQSVRRIRDMQWHQRGAFHPSS [W59C], for which the Tm was 46.8 °C and the “change of melting temperature, mutant” value was -10 °C.

Variants of B3 are the subject of the next data set. The following applies: Homo sapiens; pH 7; Thermal; ANS fluorescence; PBS; transition: 2; reversible: yes; structure 1HK0; whole UniProt chain shown.
On to G61C, for which the Tm worked out at 69.6 °C and the “change of melting temperature, mutant” value is -7 °C.

Still in this data set, the particulars now being: Homo sapiens; pH 7; Thermal; CD; PBS; transition: 2; reversible: yes; structure 1HK0; whole UniProt chain shown.
Regarding G61C, the Tm came to 73.9 °C and the “change of melting temperature, mutant” value is -6.1 °C.

Still in this data set, the particulars now being: Homo sapiens; pH 7; Thermal; Fluorescence; PBS; transition: 2; reversible: yes; structure 1HK0; whole UniProt chain shown.
In the case of G61C, the Tm turned out to be 74.3 °C.

Still in this data set, the particulars now being: Homo sapiens; pH 7; Thermal; light scattering; PBS; transition: 2; reversible: yes; structure 1HK0; whole UniProt chain shown.
As to G61C, the Tm stood at 75.1 °C.

The variants in another data set derive from B4. The following applies: Homo sapiens; pH 7.4; Thermal; DSC; structure 3L81; whole UniProt chain shown.
For the variant MISQFFILSSKGDPLIYKDFRGDSGGRDVAELFYRKLTGLPGDESPVVMHHHGRHFIHIRHSGLYLVVTTSENVSPFSLLELLSRLATLLGDYCGSLGEGTISRNVALVYELLDEVLDYGYVQTTSTEMLRNFIQTEAVVSKPFSLFDLSSVGLFGAETQQSKVAPSSAASRPVLSSRSDQSQKNEVFLDVVERLSVLIASNGSLLKVDVQGEIRLKSFLPSGSEMRIGLTEEFCVGKSELRGYGPGIRVDEVSFHSSVNLDEFESHRILRLQPPQGELTVMDYQLSDDLPSPLPFRLFPSVQWDRGSGRLQVYLKLRCDLLSKSQALNVRLHLPLPRGVVSLSQELSSPEQKAELAEGALRWDLPRVQGGSQLSGLFQMDVPGPPGPPSHGLSTSASPLGLGPASLSFELPRHTCSGLQVRFLRLAFRPCGNANPHKWVRHLSHSDAYVIRI [R283D], the Tm came to 52.8 °C and the “change of melting temperature, mutant” value is -3 °C.
On the same counts, the results for MISQFFILSSKGDPLIYKDFRGDSGGRDVAELFYRKLTGLPGDESPVVMHHHGRHFIHIRHSGLYLVVTTSENVSPFSLLELLSRLATLLGDYCGSLGEGTISRNVALVYELLDEVLDYGYVQTTSTEMLRNFIQTEAVVSKPFSLFDLSSVGLFGAETQQSKVAPSSAASRPVLSSRSDQSQKNEVFLAVVERLSVLIASNGSLLKVDVQGEIRLKSFLPSGSEMRIGLTEEFCVGKSELRGYGPGIRVDEVSFHSSVNLDEFESHRILRLQPPQGELTVMRYQLSDDLPSPLPFRLFPSVQWDRGSGRLQVYLKLRCDLLSKSQALNVRLHLPLPRGVVSLSQELSSPEQKAELAEGALRWDLPRVQGGSQLSGLFQMDVPGPPGPPSHGLSTSASPLGLGPASLSFELPRHTCSGLQVRFLRLAFRPCGNANPHKWVRHLSHSDAYVIRI [D190A] are 50.9 °C and -4.9 °C.

Variants of B5 are the subject of another data set. The note with it: Pseudoalteromonas haloplanktis; pH 7.2; Thermal; DSC; MOPS 30 mM; NaCl 50 mM; reversible: yes; structure 1AQH; whole UniProt chain shown.
For Q82C A123C, the Tm was 40 °C; the “change of melting temperature, mutant” value is -4 °C; the “unfolding enthalpy (calorimetric)” value amounted to 78 kcal/mol.

As a reminder, the Tm is the temperature at which the thermal transition is half complete.
